The text below walks through data of publication PMC2755859 (The Journal of Biological Chemistry, 2009).

The assay concerns the target pICln (UniProt P54105 1-237). Kind of assay: pull-down.

B1: GST-PRMT5reg (domain or fragment)
chain: MAAMAVGGAGGSRVSSGRDLNCVPEIADTLGAVAKQGFDFLCMPVFHPRFKREFIQEPAKNRPGPQTRSDLLLSGRDWNTLIVGKLSPWIRPDSKVEKIRRNSEAAMLQELNFGAYLGLPAFLLPLNQEDNTNLARVLTNHIHTGHHSSMFWMRVPLVAPEDLRDDIIENAPTTHTEEYSGEEKTWMWWHNFRTLCDYSKRIAVALEIGADLPSNHVIDRWLGEPIKAAILPTSIFLTNKKGFPVLSKMHQRLIFRLLKLEVQFIITGTNHHSEKEFCSYLQYLEYLSQN
Regarding B1, the binding result is listed as “binds”.
